Assays:
[1] = tested on: HeLa Kyoto; assay: melting temperature (median over replicates), in situ; higher = more thermally stable
[2] = tested on: HeLa Kyoto; assay: thermal stability score vs G1/S (z-score of summed log2 fold changes over temperatures); higher = more thermally stable than in G1/S
[3] = tested on: HeLa Kyoto; assay: solubility in G1/S (NP-40 vs SDS abundance) (log2 ratio); higher = more soluble; details: cell cycle stage: G1/S
[4] = tested on: HeLa Kyoto; assay: solubility change mitosis vs G1/S (difference of NP-40 vs SDS log2 ratios) (log2 ratio difference); higher = more soluble in mitosis
[5] = cell cycle stage: early G1 (4.5 h after nocodazole release)
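Wherever melting temperature (median over replicates), in situ is given: HeLa Kyoto cells synchronized by double thymidine or nocodazole block, proteins quantified by TMT10plex mass spectrometry, three independent biological replicates.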
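Wherever solubility change mitosis vs G1/S (difference of NP-40 vs SDS log2 ratios) is given: synchronized HeLa Kyoto cells (double thymidine block for G1/S, nocodazole release for mitosis), protein amounts in NP-40 versus SDS lysates quantified by mass spectrometry, three biological replicates.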
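Wherever solubility in G1/S (NP-40 vs SDS abundance) is given: HeLa Kyoto cells arrested at G1/S by double thymidine block, proteins quantified by TMT10plex mass spectrometry in mild NP-40 versus SDS extracts, three biological replicates.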
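Wherever thermal stability score vs G1/S (z-score of summed log2 fold changes over temperatures) is given: synchronized HeLa Kyoto cells, proteins quantified by TMT10plex mass spectrometry, three biological replicates, mitosis taken 0.5 h after nocodazole release, G1/S directly after double thymidine block.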

| Sequence | melting temperature ([1]; cell cycle stage: G1/S) [°C] | melting temperature ([1]; cell cycle stage: mitosis) [°C] | thermal stability score [2, 5] | thermal stability score ([2]; cell cycle stage: mitosis) | solubility in G1/S (log2) [3] | solubility change mitosis (log2) [4] |
| --- | --- | --- | --- | --- | --- | --- |
| MAITLEEAPWLGWLLVKALMRFAFMVVNNLVAIPSYICYVIILQPLRVLDSKRFWYIEGIMYKWLLGMVASWGWYAGYTVMEWGEDIKAVSKDEAVMLVNHQATGDVCTLMMCLQDKGLVVAQMMWLMDHIFKYTNFGIVSLVHGDFFIRQGRSYRDQQLLLLKKHLENNYRSRDRKWIVLFPEGGFLRKRRETSQAFAKKNNLPFLTNVTLPRSGATKIILNALVAQQKNGSPAGGDAKELDSKSKGLQWIIDTTIAYPKAEPIDIQTWILGYRKPTVTHVHYRIFPIKDVPLETDDLTTWLYQRFVEKEDLLSHFYETGAFPPSKGHKEAVSREMTLSNLWIFLIQSFAFLSGYMWYNIIQYFYHCLF [LPGAT1] | 51.1 | 51.3 | 0.187 | -0.757 | -0.142 | -0.152 |
| MAKAYDHLFKLLLIGDSGVGKTCLIIRFAEDNFNNTYISTIGIDFKIRTVDIEGKKIKLQVWDTAGQERFKTITTAYYRGAMGIILVYDITDEKSFENIQNWMKSIKENASAGVERLLLGNKCDMEAKRKVQKEQADKLAREHGIRFFETSAKSSMNVDEAFSSLARDILLKSGGRRSGNGNKPPSTDLKTCDKKNTNKCSLG [RAB13] | 53.5 | 53 | -0.483 | -1.07 | -0.134 | -0.198 |
| MAKISSPTETERCIESLIAVFQKYAGKDGYNYTLSKTEFLSFMNTELAAFTKNQKDPGVLDRMMKKLDTNSDGQLDFSEFLNLIGGLAMACHDSFLKAVPSQKRT [S100A11] | 53.8 | 52.6 | -4.03 | -4.13 | -1.04 | 0.343 |
| MAKLLSCVLGPRLYKIYRERDSERAPASVPETPTAVTAPHSSSWDTYYQPRALEKHADSILALASVFWSISYYSSPFAFFYLYRKGYLSLSKVVPFSHYAGTLLLLLAGVACLRGIGRWTNPQYRQFITILEATHRNQSSENKRQLANYNFDFRSWPVDFHWEEPSSRKESRGGPSRRGVALLRPEPLHRGTADTLLNRVKKLPCQITSYLVAHTLGRRMLYPGSVYLLQKALMPVLLQGQARLVEECNGRRAKLLACDGNEIDTMFVDRRGTAEPQGQKLVICCEGNAGFYEVGCVSTPLEAGYSVLGWNHPGFAGSTGVPFPQNEANAMDVVVQFAIHRLGFQPQDIIIYAWSIGGFTATWAAMSYPDVSAMILDASFDDLVPLALKVMPDSWRGLVTRTVRQHLNLNNAEQLCRYQGPVLLIRRTKDEIITTTVPEDIMSNRGNDLLLKLLQHRYPRVMAEEGLRVVRQWLEASSQLEEASIYSRWEVEEDWCLSVLRSYQAEHGPDFPWSVGEDMSADGRRQLALFLARKHLHNFEATHCTPLPAQNFQMPWHL [ABHD16A] | 51 | 51.3 | 0.0741 | -0.0149 | -0.125 | -0.122 |
| MAKRNAEKELTDRNWDQEDEAEEVGTFSMASEEVLKNRAIKKAKRRNVGFESDTGGAFKGFKGLVVPSGGGRFSGFGSGAGGKPLEGLSNGNNITSAPPFASAKAAADPKVAFGSLAANGPTTLVDKVSNPKTNGDSQQPSSSGLASSKACVGNAYHKQLAALNCSVRDWIVKHVNTNPLCDLTPIFKDYEKYLANIEQQHGNSGRNSESESNKVAAETQSPSLFGSTKLQQESTFLFHGNKTEDTPDKKMEVASEKKTDPSSLGATSASFNFGKKVDSSVLGSLSSVPLTGFSFSPGNSSLFGKDTTQSKPVSSPFPTKPLEGQAEGDSGECKGGDEEENDEPPKVVVTEVKEEDAFYSKKCKLFYKKDNEFKEKGIGTLHLKPTANQKTQLLVRADTNLGNILLNVLIPPNMPCTRTGKNNVLIVCVPNPPIDEKNATMPVTMLIRVKTSEDADELHKILLEKKDA [NUP50] | 51.9 | 52.8 | -1.56 | -1.75 | 0.204 | 0.0955 |
| MAKTYDYLFKLLLIGDSGVGKTCLLFRFSEDAFNTTFISTIGIDFKIRTIELDGKKIKLQIWDTAGQERFRTITTAYYRGAMGIMLVYDITNEKSFDNIKNWIRNIEEHASSDVERMILGNKCDMNDKRQVSKERGEKLAIDYGIKFLETSAKSSANVEEAFFTLARDIMTKLNRKMNDSNSAGAGGPVKITENRSKKTSFFRCSLL [RAB8B] | 55.9 | 54 | 1.55 | 0.563 | -0.16 | -0.0727 |
| MALAARLLPQFLHSRSLPCGAVRLRTPAVAEVRLPSATLCYFCRCRLGLGAALFPRSARALAASALPAQGSRWPVLSSPGLPAAFASFPACPQRSYSTEEKPQQHQKTKMIVLGFSNPINWVRTRIKAFLIWAYFDKEFSITEFSEGAKQAFAHVSKLLSQCKFDLLEELVAKEVLHALKEKVTSLPDNHKNALAANIDEIVFTSTGDISIYYDEKGRKFVNILMCFWYLTSANIPSETLRGASVFQVKLGNQNVETKQLLSASYEFQREFTQGVKPDWTIARIEHSKLLE [C2ORF47] | 53.7 | 53.3 | 0.0315 | 0.76 | -0.257 | -0.117 |
